Measurements reported in patent US20190321401A1 (JUNO THERAPEUTICS, published 2019).

B1: TCR 62 (mouse constant regions) (TCR, V domains shown)
V domain 1: AQTVTQSQPEMSVQEAETVTLSCTYDTSENNYYLFWYKQPPSRQMILVIRQEAYKQQNATENRFSVNFQKAAKSFSLKISDSQLGDTAMYFCALYTYKYIFGTGTRLKVLA
V domain 2: EAGVAQSPRYKIIEKRQSVAFWCNPISGHATLYWYQQILGQGPKLLIQFQNNGVVDDSQLPKDRFSAERLKGVDSTLKIQPAKLEDSAVYLCASSLDTRGSSYNEQFFGPGTRLTVLE
B2: TCR 58 (mouse constant regions) (TCR, V domains shown)
V domain 1: RKEVEQDPGPFNVPEGATVAFNCTYSNSASQSFFWYRQDCRKEPKLLMSVYSSGNEDGRFTAQLNRASQYISLLIRDSKLSDSATYLCVVNRDNYGQNFVFGPGTRLSVLP
V domain 2: EPEVTQTPSHQVTQMGQEVILRCVPISNHLYFYWYRQILGQKVEFLVSFYNNEISEKSEIFDDQFSVERPDGSNFTLKIRSTKLEDSAMYFCASTPRSSYEQYFGPGTRLTVTE
B3: TCR 60 (mouse constant regions) (TCR, V domains shown)
V domain 1: QKEVEQNSGPLSVPEGAIASLNCTYSDRGSQSFFWYRQYSGKSPELIMFIYSNGDKEDGRFTAQLNKASQYVSLLIRDSQPSDSATYLCAVNMLGSGGSNYKLTFGKGTLLTVNP
V domain 2: EPEVTQTPSHQVTQMGQEVILRCVPISNHLYFYWYRQILGQKVEFLVSFYNNEISEKSEIFDDQFSVERPDGSNFTLKIRSTKLEDSAMYFCAISRTVSYEQYFGPGTRLTVTE
B4: TCR 58 (TCR, V domains shown)
Valpha: RKEVEQDPGPFNVPEGATVAFNCTYSNSASQSFFWYRQDCRKEPKLLMSVYSSGNEDGRFTAQLNRASQYISLLIRDSKLSDSATYLCVVNRDNYGQNFVFGPGTRLSVLP
Vbeta: EPEVTQTPSHQVTQMGQEVILRCVPISNHLYFYWYRQILGQKVEFLVSFYNNEISEKSEIFDDQFSVERPDGSNFTLKIRSTKLEDSAMYFCASTPRSSYEQYFGPGTRLTVT
B5: TCR 59 (mouse constant regions) (TCR, V domains shown)
V domain 1: GQQVMQIPQYQHVQEGEDFTTYCNSSTTLSNIQWYKQRPGGHPVFLIQLVKSGEVKKQKRLTFQFGEAKKNSSLHITATQTTDVGTYFCAPKREYGNKLVFGAGTILRVKS
V domain 2: EPEVTQTPSHQVTQMGQEVILRCVPISNHLYFYWYRQILGQKVEFLVSFYNNEISEKSEIFDDQFSVERPDGSNFTLKIRSTKLEDSAMYFCAYSGRASYEQYFGPGTRLTVTE
B6: TCR 61 (mouse constant regions) (TCR, V domains shown)
V domain 1: QKEVEQNSGPLSVPEGAIASLNCTYSDRGSQSFFWYRQYSGKSPELIMFIYSNGDKEDGRFTAQLNKASQYVSLLIRDSQPSDSATYLCAVNIENNNARLMFGDGTQLVVKP
V domain 2: EPEVTQTPSHQVTQMGQEVILRCVPISNHLYFYWYRQILGQKVEFLVSFYNNEISEKSEIFDDQFSVERPDGSNFTLKIRSTKLEDSAMYFCASTKRFSYEQYFGPGTRLTVTE
B7: TCR 56 (mouse constant regions) (TCR, V domains shown)
V domain 1: GQNIDQPTEMTATEGAIVQINCTYQTSGFNGLFWYQQHAGEAPTFLSYNVLDGLEEKGRFSSFLSRSKGYSYLLLKELQMKDSASYLCAVRDWGYGGATNKLIFGTGTLLAVQP
V domain 2: NAGVMQNPRHLVRRRGQEARLRCSPMKGHSHVYWYRQLPEEGLKFMVYLQKENIIDESGMPKERFSAEFPKEGPSILRIQQVVRGDSAAYFCASSPDESRDSNQPQHFGDGTRLSILE
notes: Human variable regions on mouse constant regions with added cysteines (Calpha Thr48Cys, Cbeta Ser57Cys); Entries are the full chains without signal peptide
B8: TCR 56 (TCR, V domains shown)
Valpha: GQNIDQPTEMTATEGAIVQINCTYQTSGFNGLFWYQQHAGEAPTFLSYNVLDGLEEKGRFSSFLSRSKGYSYLLLKELQMKDSASYLCAVRDWGYGGATNKLIFGTGTLLAVQP
Vbeta: NAGVMQNPRHLVRRRGQEARLRCSPMKGHSHVYWYRQLPEEGLKFMVYLQKENIIDESGMPKERFSAEFPKEGPSILRIQQVVRGDSAAYFCASSPDESRDSNQPQHFGDGTRLSIL
B9: TCR 63 (mouse constant regions) (TCR, V domains shown)
V domain 1: SQELEQSPQSLIVQEGKNLTINCTSSKTLYGLYWYKQKYGEGLIFLMMLQKGGEEKSHEKITAKLDEKKQQSSLHITASQPSHAGIYLCGADIDDYKLSFGAGTTVTVRA
V domain 2: GAGVSQSPRYKVAKRGQDVALRCDPISGHVSLFWYQQALGQGPEFLTYFQNEAQLDKSGLPSDRFFAERPEGSVSTLKIQRTQQEDSAVYLCASRPRQGYNDNEQFFGPGTRLTVLE
B10: TCR 63 (TCR, V domains shown)
Valpha: SQELEQSPQSLIVQEGKNLTINCTSSKTLYGLYWYKQKYGEGLIFLMMLQKGGEEKSHEKITAKLDEKKQQSSLHITASQPSHAGIYLCGADIDDYKLSFGAGTTVTVRA
Vbeta: GAGVSQSPRYKVAKRGQDVALRCDPISGHVSLFWYQQALGQGPEFLTYFQNEAQLDKSGLPSDRFFAERPEGSVSTLKIQRTQQEDSAVYLCASRPRQGYNDNEQFFGPGTRLTVL
B11: TCR 65 (mouse constant regions) (TCR, V domains shown)
V domain 1: EDQVTQSPEALRLQEGESSSLNCSYTVSGLRGLFWYRQDPGKGPEFLFTLYSAGEEKEKERLKATLTKKESFLHITAPKPEDSATYLCAVQAERGSTLGRLYFGRGTQLTVWP
V domain 2: DVKVTQSSRYLVKRTGEKVFLECVQDMDHENMFWYRQDPGLGLRLIYFSYDVKMKEKGDIPEGYSVSREKKERFSLILESASTNQTSMYLCASSLWGRRNTGELFFGEGSRLTVLE
B12: TCR 57 (mouse constant regions) (TCR, V domains shown)
V domain 1: TQLLEQSPQFLSIQEGENLTVYCNSSSVFSSLQWYRQEPGEGPVLLVTVVTGGEVKKLKRLTFQFGDARKDSSLHITAAQPGDTGLYLCAGARNFNKFYFGSGTKLNVKP
V domain 2: GAVVSQHPSWVICKSGTSVKIECRSLDFQATTMFWYRQFPKQSLMLMATSNEGSKATYEQGVEKDKFLINHASLTLSTLTVTSAHPEDSSFYICSARSWRGGLEQFFGPGTRLTVLE
B13: TCR 59 (TCR, V domains shown)
Valpha: GQQVMQIPQYQHVQEGEDFTTYCNSSTTLSNIQWYKQRPGGHPVFLIQLVKSGEVKKQKRLTFQFGEAKKNSSLHITATQTTDVGTYFCAPKREYGNKLVFGAGTILRVKS
Vbeta: EPEVTQTPSHQVTQMGQEVILRCVPISNHLYFYWYRQILGQKVEFLVSFYNNEISEKSEIFDDQFSVERPDGSNFTLKIRSTKLEDSAMYFCAYSGRASYEQYFGPGTRLTVT
B14: TCR 60 (TCR, V domains shown)
Valpha: QKEVEQNSGPLSVPEGAIASLNCTYSDRGSQSFFWYRQYSGKSPELIMFIYSNGDKEDGRFTAQLNKASQYVSLLIRDSQPSDSATYLCAVNMLGSGGSNYKLTFGKGTLLTVNP
Vbeta: EPEVTQTPSHQVTQMGQEVILRCVPISNHLYFYWYRQILGQKVEFLVSFYNNEISEKSEIFDDQFSVERPDGSNFTLKIRSTKLEDSAMYFCAISRTVSYEQYFGPGTRLTVT
B15: TCR 61 (TCR, V domains shown)
Valpha: QKEVEQNSGPLSVPEGAIASLNCTYSDRGSQSFFWYRQYSGKSPELIMFIYSNGDKEDGRFTAQLNKASQYVSLLIRDSQPSDSATYLCAVNIENNNARLMFGDGTQLVVKP
Vbeta: EPEVTQTPSHQVTQMGQEVILRCVPISNHLYFYWYRQILGQKVEFLVSFYNNEISEKSEIFDDQFSVERPDGSNFTLKIRSTKLEDSAMYFCASTKRFSYEQYFGPGTRLTVT
B16: TCR 64 (mouse constant regions) (TCR, V domains shown)
V domain 1: AQKVTQAQTEISVVEKEDVTLDCVYETRDTTYYLFWYKQPPSGELVFLIRRNSFDEQNEISGRYSWNFQKSTSSFNFTITASQVVDSAVYFCALSGVDNYGQNFVFGPGTRLSVLP
V domain 2: DTAVSQTPKYLVTQMGNDKSIKCEQNLGHDTMYWYKQDSKKFLKIMFSYNNKELIINETVPNRFSPKSPDKAHLNLHINSLELGDSAVYFCASSQGEAGANVLTFGAGSRLTVLE
B17: TCR 64 (TCR, V domains shown)
Valpha: AQKVTQAQTEISVVEKEDVTLDCVYETRDTTYYLFWYKQPPSGELVFLIRRNSFDEQNEISGRYSWNFQKSTSSFNFTITASQVVDSAVYFCALSGVDNYGQNFVFGPGTRLSVLP
Vbeta: DTAVSQTPKYLVTQMGNDKSIKCEQNLGHDTMYWYKQDSKKFLKIMFSYNNKELIINETVPNRFSPKSPDKAHLNLHINSLELGDSAVYFCASSQGEAGANVLTFGAGSRLTVL

Key:
[1] = biological target: T1, HPV 16 E6(29-38)-peptide-MHC tetramer complex (human papillomavirus 16 (HPV16); human); experiment: flow cytometry, peptide-MHC tetramer staining of TCR-transduced primary human T cells;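 further: normal donor T cells activated with anti-CD3/anti-CD28, then lentivirally transduced with TCRs, with mock-transduced cells as control, co-stained for the transduction marker and CD8, tetramers presented by HLA-A02:01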
T1 construct: also called E6(29-38)-specific tetramer
Procedure: (§1) CD8+ and CD4+ T cells were isolated from normal human donors and were stimulated with anti-CD3/anti-CD28 reagent, and then were transduced with a lentiviral preparation encoding various TCRs, or were subjected to a mock transduction control (cells treated under the same conditions used for lentiviral transduction but without addition of lentivirus). Following transduction, the cells were cultured in media containing human serum and cytokines.
(§2) After transduction, the cells were assessed by flow cytometry for staining with an antibody that recognized the surrogate marker, an anti-CD8 antibody, and a HPV 16 E6(29-38)- or HPV16 E7(11-19)-peptide-MHC tetramer complex. […] The reference TCR contains a mouse constant region.
(§3) Column 3 and 4 sets forth the percentage of CD8+ cells and CD8− cells (CD4+ cells) positive for E7(11-19)-specific tetramer staining in flow cytometry. Column 5 and 6 sets forth the percentage of CD8+ cells and CD8− cells (CD4+ cells) positive for E6(29-38)-specific tetramer staining in flow cytometry.

[2] = biological target: T2, HPV16 E7(11-19)-peptide-MHC tetramer complex (human papillomavirus 16 (HPV16); human); experiment: as above
T2 construct: also called E7(11-19)-specific tetramer; MHC/E7(11-19) peptide tetramer
Procedure: as §1, §2, §3

[3] = biological target: T3, HPV 16 E6 peptide on HLA-A*02:01 (human); experiment: multimer staining
T3 peptide: TIHDIILECV

[4] = biological target: T4, HPV 16 E7 peptide on HLA-A*02:01 (human); experiment: multimer staining
T4 peptide: YMLDLQPET

Row | Binder | % of CD8+ cells positive for E6(29-38) tetramer staining [1] | % of CD8- (CD4+) cells positive for E6(29-38) tetramer staining [1] | % of CD8+ cells positive for E7(11-19) tetramer staining [2] | % of CD8- (CD4+) cells positive for E7(11-19) tetramer staining [2] | binding result [3] | binding result [4]
1 | B1 | 0.2% | 0.04% | 38.8% | 0.07% | – | –
2 | B2 | 0.14% | 0.11% | 9.91% | 0.1% | – | –
3 | B3 | 0.15% | 0.07% | 21.5% | 0.13% | – | –
4 | B4 | – | – | – | – | no recognition | recognises
5 | B5 | 0.11% | 0.16% | 28% | 0.16% | – | –
6 | B6 | 0.15% | 0.12% | 17.2% | 0.13% | – | –
7 | B7 | 0.07% | 0.12% | 0.05% | 0.13% | – | –
8 | B8 | – | – | – | – | no recognition | no recognition
9 | B9 | 0.23% | 0.12% | 0.3% | 0.25% | – | –
10 | B10 | – | – | – | – | no recognition | –
11 | B11 | – | – | 0.26% | 0.07% | – | –
12 | B12 | 0.23% | 0.19% | 95% | 86% | – | –
13 | B13 | – | – | – | – | no recognition | recognises
14 | B14 | – | – | – | – | no recognition | recognises
15 | B15 | – | – | – | – | no recognition | recognises
16 | B16 | 0.17% | 0.11% | 0.13% | 0.06% | – | –
17 | B17 | – | – | – | – | no recognition | –
